US20100015126A1, “Methods of Binding of Cross-Beta Structures By Chaperones” (priority 2006, published 2010)

Target: T1, BiP-Sepharose (Homo sapiens, UniProt P11021)
T1 construct: The human BiP gene except the signal peptide encoding region was obtained from Geneart (Germany); linker […]; made in house; host or cells: HEK 293E cells, transient transfection, PABC674 vector; secreted into the medium
Assay: BiP-Sepharose extraction of proteins from patient plasma, serum, synovial fluid and mass-spectrometric identification
Type: binding
Experimental: BiP was coated on CNBr-Sepharose (GE-Healthcare, Amersham Biosciences). Immobilization of BiP was performed essentially as described elsewhere in this application for NHS-Sepharose. CNBr-matrix was dissolved at 200 mg/ml in 1 mM HCl and treated the same as the NHS-matrix, except for an additional 5 minutes activation step in 1 mM HCl on a roller device before washing in this buffer. BiP was diluted in immobilization buffer (50 mM NaCl and 40 mM NaHCO3) to a concentration of 820 μg/ml. A total volume of 2 ml BiP solution (1640 μg BiP) was incubated with 360 mg beads. Negative control matrix was exposed to immobilization buffer, only. After overnight immobilization matrix was blocked with Tris and washed.
Six samples were incubated with the BiP-Sepharose, IgIV-Sepharose and the control-Sepharose: Normal pooled plasma, plasma of a patient I or of a patient II, with AL amyloidosis, serum of a patient III with RA (Rheumatoid Factor (RF) titer 682), control serum and synovial fluid of a patient IV with RA (RF titer 23). All samples were diluted 20× in HBS and applied to 200 μl beads in two volumes of 500 μl. One volume was incubated for 4 h at RT and supernatant was discarded after centrifugation (2 minutes at 1400 rpm). Subsequently, the second volume was applied to the same matrix and incubated overnight on a roller device at 4° C. […] To collect the eluates, the matrices were centrifuged and the two eluates were pooled for each sample.
Protein digests were desalted as described (Rappsilber et al., 2003), vacuum dried and dissolved in 2.5% formic acid.
For analysis of peptide mixtures, an Agilent 1100 HPLC system (Agilent Technologies) connected to a Thermo Finnigan LTQ-MS (Thermo Electron, Bremen, Germany) was used. Protein digests were injected on a trap column (Reprosil C18 RP (Dr Maisch, Germany), 20 mm×100 μm I.D.) at 5 μl/minute. Subsequently, the peptides were transferred with a split-reduced flow rate of 100 nL/minute solvent A (0.1 M acetic acid) on the analytical column (Reprosil C18 RP, 20 cm×50 μm I.D.). […] The column effluent was directly introduced into the ESI source of the mass spectrometer via a butt-connected nano-ESI emitter (New Objectives, Woburn, Mass.). The mass spectrometer was operated in the positive ion mode and parent ions were selected for fragmentation in data-dependent mode.
After mass spectrometric measurements, peak lists were generated using BioWorks software (Thermo Electron, Bremen, Germany). Protein identification was performed using Mascot software (www.matrixscience.com) by searching the IPIhuman database (version 3.24, downloaded from ftp://ftp.ebi.ac.uk/pub/databases/IPI/current) using the following settings: fully tryptic peptides, peptide tolerance 0.8 Da, MS/MS tolerance 0.9 Da, 1 missed cleavage allowed, carbamidomethyl (Cys) and oxidation (Met) as fixed and variable modification, respectively. The Scaffold software package (www.proteomesoftware.com) was used to parse the data and to filter peptides at a confidence level of 95%, allowing only protein identification with at least 2 peptides identified.

[1] = Sample B4: eluate of BiP-Sepharose contacted with RA patient III serum
[2] = Sample B3: eluate of BiP-Sepharose contacted with AL amyloidosis patient II plasma

T1 sequence (P11021 19-654): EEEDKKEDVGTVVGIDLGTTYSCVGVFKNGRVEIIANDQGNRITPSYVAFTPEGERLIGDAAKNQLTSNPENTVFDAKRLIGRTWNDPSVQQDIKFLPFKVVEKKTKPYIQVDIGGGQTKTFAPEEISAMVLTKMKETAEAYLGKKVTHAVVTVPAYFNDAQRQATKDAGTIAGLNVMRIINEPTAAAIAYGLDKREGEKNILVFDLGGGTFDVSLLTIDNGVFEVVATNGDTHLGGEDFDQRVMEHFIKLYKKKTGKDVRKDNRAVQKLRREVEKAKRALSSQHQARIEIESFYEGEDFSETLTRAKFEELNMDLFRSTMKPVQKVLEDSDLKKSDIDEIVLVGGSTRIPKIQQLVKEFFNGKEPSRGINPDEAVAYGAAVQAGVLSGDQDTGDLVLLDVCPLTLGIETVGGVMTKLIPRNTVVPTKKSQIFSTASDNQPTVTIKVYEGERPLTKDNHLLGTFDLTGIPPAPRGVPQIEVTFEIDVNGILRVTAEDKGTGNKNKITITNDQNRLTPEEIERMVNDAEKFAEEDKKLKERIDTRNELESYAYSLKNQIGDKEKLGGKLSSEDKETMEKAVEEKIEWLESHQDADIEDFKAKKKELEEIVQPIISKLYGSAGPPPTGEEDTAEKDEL

# of peptides in sample A# [1] | # of peptides in sample A# (Sample B2: eluate of BiP-Sepharose contacted with AL amyloidosis patient I plasma) | # of peptides in sample A# [2] | Molecule
 | 2 | 2 | Immunoglobulin heavy constant gamma 3 (G3m marker)/Ig gamma-3 chain C region (Heavy chain disease protein, HDC) (protein) ASTKGPSVFPLAPCSRSTSGGTAALGCLVKDYFPEPVTVSWNSGALTSGVHTFPAVLQSSGLYSLSSVVTVPSSSLGTQTYTCNVNHKPSNTKVDKRVELKTPLGDTTHTCPRCPEPKSCDTPPPCPRCPEPKSCDTPPPCPRCPEPKSCDTPPPCPRCPAPELLGGPSVFLFPPKPKDTLMISRTPEVTCVVVDVSHEDPEVQFKWYVDGVEVHNAKTKPREEQYNSTFRVVSVLTVLHQDWLNGKEYKCKVSNKALPAPIEKTISKTKGQPREPQVYTLPPSREEMTKNQVSLTCLVKGFYPSDIAVEWESSGQPENNYNTTPPMLDSDGSFFLYSKLTVDKSRWQQGNIFSCSVMHEALHNRFTQKSLSLSPGK
10 |  | 4 | Immunoglobulin heavy constant mu/Full-length cDNA clone CS0DD006YL02 of Neuroblastoma of Homo sapiens (protein, UniProt P01871 1-474, looked up) Immunoglobulin heavy constant …: GSASAPTLFPLVSCENSPSDTSSVAVGCLAQDFLPDSITFSWKYKNNSDISSTRGFPSVLRGGKYAATSQVLLPSKDVMQGTDEHVVCKVQHPNGNKEKNVPLPVIAELPPKVSVFVPPRDGFFGNPRKSKLICQATGFSPRQIQVSWLREGKQVGSGVTTDQVQAEAKESGPTTYKVTSTLTIKESDWLGQSMFTCRVDHRGLTFQQNASSMCVPDQDTAIRVFAIPPSFASIFLTKSTKLTCLVTDLTTYDSVTISWTRQNGEAVKTHTNISESHPNATFSAVGEASICEDDWNSGERFTCTVTHTDLPSPLKQTISRPKGVALHRPDVYLLPPAREQLNLRESATITCLVTGFSPADVFVQWMQRGQPLSPEKYVTSAPMPEPQAPGRYFAHSILTVSEEEWNTGETYTCVVAHEALPNRVTERTVDKSTEGEVSADEEGFENLWATASTFIVLFLLSLFYSTTVTLFKVK
2 |  |  | Ig lambda chain V-III region SH (protein) SELTQDPAVSVALGQTVRITCQGDSLRSYYASWYQQKPGQAPVLVIYGKNNRPSGIPDRFSGSSSGNTASLTITGAQAEDEADYYCNSRDSS
14 |  |  | Hypothetical protein DKFZp686I04196 (Fragment)/Immunoglobulin heavy constant gamma 2 (G2m marker)/Ig gamma-2 chain C region (protein) ASTKGPSVFPLAPCSRSTSESTAALGCLVKDYFPEPVTVSWNSGALTSGVHTFPAVLQSSGLYSLSSVVTVPSSNFGTQTYTCNVDHKPSNTKVDKTVERKCCVECPPCPAPPVAGPSVFLFPPKPKDTLMISRTPEVTCVVVDVSHEDPEVQFNWYVDGVEVHNAKTKPREEQFNSTFRVVSVLTVVHQDWLNGKEYKCKVSNKGLPAPIEKTISKTKGQPREPQVYTLPPSREEMTKNQVSLTCLVKGFYPSDISVEWESNGQPENNYKTTPPMLDSDGSFFLYSKLTVDKSRWQQGNVFSCSVMHEALHNHYTQKSLSLSPGK
2 |  |  | Dapper homolog 1 (hDPR1) (Heptacellular carcinoma novel gene 3)/Dapper, antagonist of beta-catenin, homolog 1 (Xenopus laevis) (protein) MKPSPAGTAKELEPPAPARGEQRTAEPEGRWREKGEADTERQRTRERQEATLAGLAELEYLRQRQELLVRGALRGAGGAGAAAPRAGELLGEAAQRSRLEEKFLEENILLLRKQLNCLRRRDAGLLNQLQELDKQISDLRLDVEKTSEEHLETDSRPSSGFYELSDGASGSLSNSSNSVFSECLSSCHSSTCFCSPLEATLSLSDGCPKSADLIGLLEYKEGHCEDQASGAVCRSLSTPQFNSLDVIADVNPKYQCDLVSKNGNDVYRYPSPLHAVAVQSPMFLLCLTGNPLREEDRLGNHASDICGGSELDAVKTDSSLPSPSSLWSASHPSSSKKMDGYILSLVQKKTHPVRTNKPRTSVNADPTKGLLRNGSVCVRAPGGVSQGNSVNLKNSKQACLPSGGIPSLNNGTFSPPKQWSKESKAEQAESKRVPLPEGCPSGAASDLQSKHLPKTAKPASQEHARCSAIGTGESPKESAQLSGASPKESPSRGPAPPQENKVVQPLKKMSQKNSLQGVPPATPPLLSTAFPVEERPALDFKSEGSSQSLEEAHLVKAQFIPGQQPSVRLHRGHRNMGVVKNSSLKHRGPALQGLENGLPTVREKTRAGSKKCRFPDDLDTNKKLKKASSKGRKSGGGPEAGVPGRPAGGGHRAGSRAHGHGREAVVAKPKHKRTDYRRWKSSAEISYEEALRRARRGRRENVGLYPAPVPLPYASPYAYVASDSEYSAECESLFHSTVVDTSEDEQSNYTTNCFGDSESSVSEGEFVGESTTTSDSEESGGLIWSQFVQTLPIQTVTAPDLHNHPAKTFVKIKASHNLKKKILRFRSGSLKLMTTV

The next lines start with the molecule.

Molecule | # of peptides in sample A# [1] | # of peptides in sample A# (Sample B2: eluate of BiP-Sepharose contacted with AL amyloidosis patient I plasma) | # of peptides in sample A# [2]
CD5 antigen-like precursor (SP-alpha, CT-2, IgM-associated peptide)/CD5 molecule-like (protein) SPSGVRLVGGLHRCEGRVEVEQKGQWGTVCDDGWDIKDVAVLCRELGCGAASGTPSGILYEPPAEKEQKVLIQSVSCTGTEDTLAQCEQEEVYDCSHDEDAGASCENPESSFSPVPEGVRLADGPGHCKGRVEVKHQNQWYTVCQTGWSLRAAKVVCRQLGCGRAVLTQKRCNKHAYGRKPIWLSQMSCSGREATLQDCPSGPWGKNTCNHDEDTWVECEDPFDLRLVGGDNLCSGRLEVLHKGVWGSVCDDNWGEKEDQVVCKQLGCGKSLSPSFRDRKCYGPGVGRIWLDNVRCSGEEQSLEQCQHRFWGFHDCTHQEDVAVICSG | 1 |  | 
V1-3 protein (Fragment) (protein) QSALTQPRSVSGSPGQSVTISCTGTSSDVGGYNYVSWYQQHPGKAPKLMIYDVSKRPSGVPDRFSGSKSGNTASLTISGLQAEDEADYYCCSYAGSYTFH | 1 |  | 2
CDNA FLJ90170 fis, clone MAMMA1000370, highly similar to Ig alpha-1 chain C region/Immunoglobulin heavy constant alpha 1 (protein, UniProt P01876 1-398, looked up) Immunoglobulin heavy constant …: ASPTSPKVFPLSLCSTQPDGNVVIACLVQGFFPQEPLSVTWSESGQGVTARNFPPSQDASGDLYTTSSQLTLPATQCLAGKSVTCHVKHYTNPSQDVTVPCPVPSTPPTPSPSTPPTPSPSCCHPRLSLHRPALEDLLLGSEANLTCTLTGLRDASGVTFTWTPSSGKSAVQGPPERDLCGCYSVSSVLPGCAEPWNHGKTFTCTAAYPESKTPLTATLSKSGNTFRPEVHLLPPPSEELALNELVTLTCLARGFSPKDVLVRWLQGSQELPREKYLTWASRQEPSQGTTTFAVTSILRVAAEDWKKGDTFSCMVGHEALPLAFTQKTIDRLADWQMPPPYVVLDLPQETLEEETPGANLWPTTITFLTLFLLSLFYSTALTVTSVRGPSGNREGPQY | 17 |  | 2
Complement factor H-related protein 3 precursor/Complement factor H-related 3 (FHR-3, H factor-like protein 3, DOWN16)/Complement factor H-related 3, isoform CRA_c (protein) QVKPCDFPDIKHGGLFHENMRRPYFPVAVGKYYSYYCDEHFETPSGSYWDYIHCTQNGWSPAVPCLRKCYFPYLENGYNQNYGRKFVQGNSTEVACHPGYGLPKAQTTVTCTEKGWSPTPRCIRVRTCSKSDIEIENGFISESSSIYILNKEIQYKCKPGYATADGNSSGSITCLQNGWSAQPICINSSEKCGPPPPISNGDTTSFLLKVYVPQSRVEYQCQPYYELQGSNYVTCSNGEWSEPPRCIHPCIITEENMNKNNIKLKGRSDRKYYAKTGDTIEFMCKLGYNANTSILSFQAVCREGIVEYPRCE |  |  | 1
